For 14 molecules, IC50 results are on record in article PMC10333884 (2023).

Non-standard residues stand in square brackets, D forms with d. No end group written: not given here. pS = N[C@@H](COP(=O)(O)O)C(=O)O

To fix the notation:
T1: Clathrin N‐terminal domain (NTD) (human, UniProt Q00610 1-364)
T1 chain: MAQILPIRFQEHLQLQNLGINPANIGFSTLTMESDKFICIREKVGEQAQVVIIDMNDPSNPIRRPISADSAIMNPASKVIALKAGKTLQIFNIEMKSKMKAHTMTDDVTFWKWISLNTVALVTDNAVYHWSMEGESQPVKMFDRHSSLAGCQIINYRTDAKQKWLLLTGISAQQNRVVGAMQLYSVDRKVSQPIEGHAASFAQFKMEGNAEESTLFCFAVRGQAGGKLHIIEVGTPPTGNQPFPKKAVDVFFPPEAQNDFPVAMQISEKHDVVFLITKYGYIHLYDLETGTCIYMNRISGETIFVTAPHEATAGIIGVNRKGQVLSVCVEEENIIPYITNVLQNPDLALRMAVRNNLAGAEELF

T2: TSG101 UEV (human, UniProt Q99816 2-145)
T2 chain: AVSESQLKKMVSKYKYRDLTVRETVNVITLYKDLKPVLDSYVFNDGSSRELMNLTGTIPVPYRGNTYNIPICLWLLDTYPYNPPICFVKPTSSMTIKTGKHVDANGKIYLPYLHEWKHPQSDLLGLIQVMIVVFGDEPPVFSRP

In the first assay the target is T1, Clathrin N‐terminal domain (NTD). Nature of the assay: FP.
With GGNLITFEPLQPGEF [HURP_(832–846), phosphomimetic (E)], the IC50 (commonly the concentration that gives 50% inhibition) stood at 70 µM.

With YRHISFGGNLITF[pS]PLQPGEF [pS839 HURP_(826–846) peptide], the midpoint of inhibition, the IC50, lay at 11 µM. On the same count and under the same terms, the figure for GGNLITFSPLQPGEF [HURP_(832–846), wild‐type] is 318 µM; for GGNLITF[pS]PLQPGEF [pS839 HURP_(832–846)] it is 11 µM.

For a further assay, the target named is SNX27 PDZ (human, UniProt Q96L92 43-136). Nature of the assay: FP.
The molecule NLLLERDTEFTVCPD [CDC25C_(30–44), phosphomimetic (E)] had an IC50 of 1800 µM.

NLLLERDT[pS]FTVCPD [CDC25C_(30–44), phosphorylated (pS)]: the IC50 stood at 1000 µM.

NLLLERDTSFTVCPD [CDC25C_(30–44), wild‐type] registered an IC50 of 210 µM. On the same count and under the same terms, the figure for GMVSSTSFNGG [DAXX_(606–616), wild‐type] is 1300 µM.

The next assay deals with T2, TSG101 UEV. Put plainly: FP.
For QSIAREPSAPSIPTP [PDCD6IP_(711–725), wild‐type], the concentration for half-maximal inhibition (IC50) worked out at 34 µM.

Consider NGCSSPTAPLSPMSP [GJA1_(269–283), wild‐type], for which 465 µM corresponded to half-maximal inhibition (IC50). Same read-out and setting: as for HSGNVTPTAPPYLQES [PIP4P2_(17–32), wild‐type], the figure is 29 µM.

The target of a further assay is MAP1LC3A (human). Put plainly: FP.
KKQLKRFETEEFVLL [ATG4C_(444–458), phosphomimetic (E)] came in with an IC50 of 11 µM. The same measure, in the same setting: the figure for KKQLKRF[pS]TEEFVLL [ATG4C_(444–458), phosphorylated (pS)] is 5.5 µM; for KKQLKRFSTEEFVLL [ATG4C_(444–458), wild‐type] it is 17 µM.
